Test results published in patent publication US20090155833A1 (TEIJIN PHARMA, published 2009).

Biological target: T1, mouse GPR12 (mouse, UniProt P35412 1-334)
T1 sequence: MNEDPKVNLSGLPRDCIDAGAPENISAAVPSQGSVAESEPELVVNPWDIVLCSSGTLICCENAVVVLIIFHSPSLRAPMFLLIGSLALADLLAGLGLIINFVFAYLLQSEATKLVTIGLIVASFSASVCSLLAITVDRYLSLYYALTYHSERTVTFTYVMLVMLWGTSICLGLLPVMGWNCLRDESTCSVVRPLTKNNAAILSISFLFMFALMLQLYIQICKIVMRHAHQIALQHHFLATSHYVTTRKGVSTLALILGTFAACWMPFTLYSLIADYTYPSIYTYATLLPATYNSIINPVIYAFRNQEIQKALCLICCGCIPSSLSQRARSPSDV
Assay: cell-based or functional assay

B1: Nesfatin-1M30 (peptide)
peptide: PDTGLYYDEYLKQVIDVLETDKHFREKLQK
intracellular cAMP level (Fold against the (-) group), CHO-K1-GPR12 cells, 10^-9 M peptide with 10^-5 M Forskolin: ~5 fold
